Data taken from patent publication US20260125455A1.

Key:
[1] = target: purified FIM1-2 domains of C6 (human) (UniProt P13671); assay: ELISA, wells coated with FIM1-2_His, control mouse IgG; replicate 1
C6 no His (human) [2] = target: C6 no His (human) (UniProt P13671); assay: ELISA, wells coated with 'C6 no His', control mouse IgG; replicate 2
[3] = target: C6Δ762: 1-762_10xHis (human); assay: ELISA, wells coated with the C6 construct, control mouse IgG; replicate 1
[4] = target: C6Δ1-79: SP_79-934_10xHis (human); assay: as above
Sequence of C6Δ1-79: SP_79-934_10xHis (human) (P13671 79-934, stated change not applied): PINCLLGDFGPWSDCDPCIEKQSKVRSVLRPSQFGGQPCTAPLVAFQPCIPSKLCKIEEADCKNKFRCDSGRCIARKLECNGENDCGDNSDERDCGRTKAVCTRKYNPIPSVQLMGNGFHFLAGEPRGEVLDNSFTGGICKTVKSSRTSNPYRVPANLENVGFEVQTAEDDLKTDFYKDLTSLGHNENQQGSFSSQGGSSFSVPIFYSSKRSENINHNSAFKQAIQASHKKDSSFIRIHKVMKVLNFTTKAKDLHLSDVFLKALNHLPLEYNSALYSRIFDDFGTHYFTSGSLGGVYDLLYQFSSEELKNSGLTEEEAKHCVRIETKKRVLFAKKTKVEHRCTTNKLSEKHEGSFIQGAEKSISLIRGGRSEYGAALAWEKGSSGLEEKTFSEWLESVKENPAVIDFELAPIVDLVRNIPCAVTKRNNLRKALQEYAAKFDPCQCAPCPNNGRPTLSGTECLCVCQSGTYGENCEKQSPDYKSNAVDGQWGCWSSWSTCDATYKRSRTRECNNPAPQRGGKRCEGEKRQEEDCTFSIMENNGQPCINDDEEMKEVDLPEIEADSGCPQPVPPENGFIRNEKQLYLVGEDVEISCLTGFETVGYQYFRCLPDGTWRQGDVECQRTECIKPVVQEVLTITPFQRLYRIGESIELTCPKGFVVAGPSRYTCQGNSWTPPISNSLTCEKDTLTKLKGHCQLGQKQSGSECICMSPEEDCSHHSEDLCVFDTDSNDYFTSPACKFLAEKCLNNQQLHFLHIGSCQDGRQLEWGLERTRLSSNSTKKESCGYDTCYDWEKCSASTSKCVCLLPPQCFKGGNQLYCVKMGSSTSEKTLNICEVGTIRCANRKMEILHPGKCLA

[5] = target: C6Δ634: 1-634_10xHis (human); assay: as above
Sequence of C6Δ634: 1-634_10xHis (human) (P13671 22-634, stated change not applied): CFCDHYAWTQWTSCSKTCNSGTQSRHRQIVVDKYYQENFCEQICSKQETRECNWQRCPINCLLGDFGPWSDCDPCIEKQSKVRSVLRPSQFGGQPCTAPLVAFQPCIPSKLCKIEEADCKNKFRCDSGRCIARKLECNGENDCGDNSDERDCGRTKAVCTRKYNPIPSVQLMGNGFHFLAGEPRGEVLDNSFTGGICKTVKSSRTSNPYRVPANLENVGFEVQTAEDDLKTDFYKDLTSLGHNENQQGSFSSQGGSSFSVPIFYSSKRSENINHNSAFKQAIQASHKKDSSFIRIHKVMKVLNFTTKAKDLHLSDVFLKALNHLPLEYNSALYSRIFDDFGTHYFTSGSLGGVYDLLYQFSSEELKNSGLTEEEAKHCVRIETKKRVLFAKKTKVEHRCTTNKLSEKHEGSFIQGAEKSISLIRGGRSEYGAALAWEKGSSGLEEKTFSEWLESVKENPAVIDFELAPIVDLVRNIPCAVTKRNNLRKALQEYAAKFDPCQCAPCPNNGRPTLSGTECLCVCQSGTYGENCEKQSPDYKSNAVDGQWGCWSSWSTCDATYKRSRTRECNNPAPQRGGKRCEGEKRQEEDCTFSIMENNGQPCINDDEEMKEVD
C6: 1-934_10xHis (human) [6] = assay: as above
Sequence of C6: 1-934_10xHis (human) (P13671 22-934): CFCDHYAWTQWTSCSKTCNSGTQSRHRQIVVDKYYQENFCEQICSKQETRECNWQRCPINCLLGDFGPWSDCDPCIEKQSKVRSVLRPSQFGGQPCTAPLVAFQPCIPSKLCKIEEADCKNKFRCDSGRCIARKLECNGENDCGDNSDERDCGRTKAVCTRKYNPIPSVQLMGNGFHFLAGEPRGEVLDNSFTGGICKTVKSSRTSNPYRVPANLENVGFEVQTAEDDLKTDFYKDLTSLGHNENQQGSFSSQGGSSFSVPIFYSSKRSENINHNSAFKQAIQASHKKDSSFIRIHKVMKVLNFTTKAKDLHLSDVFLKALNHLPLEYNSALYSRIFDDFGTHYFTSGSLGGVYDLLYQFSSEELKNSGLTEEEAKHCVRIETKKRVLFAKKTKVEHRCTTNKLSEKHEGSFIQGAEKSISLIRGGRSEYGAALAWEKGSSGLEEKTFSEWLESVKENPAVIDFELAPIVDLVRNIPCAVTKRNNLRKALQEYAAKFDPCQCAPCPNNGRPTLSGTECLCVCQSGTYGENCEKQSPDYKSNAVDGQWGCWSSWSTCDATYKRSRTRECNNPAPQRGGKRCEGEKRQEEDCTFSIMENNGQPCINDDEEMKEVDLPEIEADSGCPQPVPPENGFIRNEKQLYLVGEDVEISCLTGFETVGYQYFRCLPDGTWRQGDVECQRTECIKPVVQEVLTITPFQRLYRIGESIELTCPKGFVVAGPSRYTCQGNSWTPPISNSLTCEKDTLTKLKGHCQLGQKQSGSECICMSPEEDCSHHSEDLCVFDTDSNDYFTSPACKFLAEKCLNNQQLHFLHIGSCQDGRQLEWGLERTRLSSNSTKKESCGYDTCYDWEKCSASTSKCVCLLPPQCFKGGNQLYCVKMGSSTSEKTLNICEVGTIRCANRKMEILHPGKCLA

[7] = target: human complement protein C6 (human) (UniProt P13671); assay: ELISA, wells coated with 'C6 from Comptech', control mouse IgG; replicate 1
Sequence of human complement protein C6 (human) (P13671 22-934 limits assumed): as the sequence (P13671 22-934) above

[8] = target: purified FIM1-2 domains of C6 (human) (UniProt P13671); assay: ELISA, wells coated with FIM1-2_His, control mouse IgG; replicate 2
C6 no His (human) [9] = target: C6 no His (human) (UniProt P13671); assay: ELISA, wells coated with 'C6 no His', control mouse IgG; replicate 1
[10] = target: C6Δ762: 1-762_10xHis (human); assay: ELISA, wells coated with the C6 construct, control mouse IgG; replicate 2
[11] = target: C6Δ1-79: SP_79-934_10xHis (human); assay: as above
[12] = target: C6Δ634: 1-634_10xHis (human); assay: as above
C6: 1-934_10xHis (human) [13] = assay: as above
[14] = target: human complement protein C6 (human) (UniProt P13671); assay: ELISA, wells coated with 'C6 from Comptech', control mouse IgG; replicate 2

Sequence of C6Δ762: 1-762_10xHis (human) (P13671 22-762, stated change not applied): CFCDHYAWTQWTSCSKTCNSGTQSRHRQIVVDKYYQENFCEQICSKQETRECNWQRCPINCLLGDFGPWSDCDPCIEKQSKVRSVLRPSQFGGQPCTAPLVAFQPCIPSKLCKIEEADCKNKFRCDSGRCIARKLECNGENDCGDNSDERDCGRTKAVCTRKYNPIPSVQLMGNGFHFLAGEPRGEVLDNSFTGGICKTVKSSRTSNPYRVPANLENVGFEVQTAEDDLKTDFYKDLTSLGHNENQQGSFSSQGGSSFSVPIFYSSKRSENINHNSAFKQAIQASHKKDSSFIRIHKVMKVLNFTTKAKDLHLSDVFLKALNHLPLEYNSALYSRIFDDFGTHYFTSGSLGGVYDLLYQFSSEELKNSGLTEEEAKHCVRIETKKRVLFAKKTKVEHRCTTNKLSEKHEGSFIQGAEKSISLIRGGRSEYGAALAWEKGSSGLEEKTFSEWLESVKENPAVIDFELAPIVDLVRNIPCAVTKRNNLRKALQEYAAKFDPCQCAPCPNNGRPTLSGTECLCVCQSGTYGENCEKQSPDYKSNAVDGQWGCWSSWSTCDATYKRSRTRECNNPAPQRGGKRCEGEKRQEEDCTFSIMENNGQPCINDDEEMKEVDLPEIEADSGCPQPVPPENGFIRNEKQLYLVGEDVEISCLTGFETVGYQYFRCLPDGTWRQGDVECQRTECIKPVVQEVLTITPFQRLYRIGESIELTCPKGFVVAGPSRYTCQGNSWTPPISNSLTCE
Sequence of purified FIM1-2 domains of C6 (human) (P13671 766-934 limits assumed): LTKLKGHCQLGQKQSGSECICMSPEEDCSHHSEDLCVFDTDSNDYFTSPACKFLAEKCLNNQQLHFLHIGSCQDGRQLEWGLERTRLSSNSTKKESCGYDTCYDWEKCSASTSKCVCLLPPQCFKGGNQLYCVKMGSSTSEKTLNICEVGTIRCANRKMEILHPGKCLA
Sequence of C6 no His (human) (P13671 22-934 limits assumed): as the sequence (P13671 22-934) above

ELISA plate reading (no name or unit printed) [1]: 0.0413 | ELISA plate reading (no name or unit printed) (C6 no His (human) [2]): 0.115 | ELISA plate reading (no name or unit printed) [3]: 0.0623 | ELISA plate reading (no name or unit printed) [4]: 0.0811 | ELISA plate reading (no name or unit printed) [5]: 0.0441 | ELISA plate reading (no name or unit printed) (C6: 1-934_10xHis (human) [6]): 0.0472 | ELISA plate reading (no name or unit printed) [7]: 0.0666 | ELISA plate reading (no name or unit printed) [8]: 0.0429 | ELISA plate reading (no name or unit printed) (C6 no His (human) [9]): 0.0488 | ELISA plate reading (no name or unit printed) [10]: 0.0648 | ELISA plate reading (no name or unit printed) [11]: 0.0935 | ELISA plate reading (no name or unit printed) [12]: 0.0472 | ELISA plate reading (no name or unit printed) (C6: 1-934_10xHis (human) [13]): 0.0481 | ELISA plate reading (no name or unit printed) [14]: 0.0728
Substance: mIgG (antibody)
